Measured values from article PMC3057456.

Test system: LUX ARRHYTHMO (LUX/PCL1) (Arabidopsis)
Assay: protein binding microarray
Details: not stated in the material

## PBM top-ranked 8-mer AGATACGC
  binding signal (PBM E-score (-0.5 to 0.5)): 0.487
